Measured values: publication PMC2893456, “Structural definition and substrate specificity of the S28 protease family: the crystal structure of human prolylcarboxypeptidase” (BMC Structural Biology, 2010)

Biological target: the molecule itself
Assay: crystal structure; 2.8 Å, MIRAS; space group R32, one molecule in the asymmetric unit, dimer formed across a two-fold crystallographic symmetry axis; crystals from 1.8 M ammonium sulfate, 0.1 M HEPES, pH 7.5, 1-2% PEG 400

B1: human prolylcarboxypeptidase (PRCP) (enzyme)
chain: KNYSVLYFQQKVDHFGFNTVKTFNQRYLVADKYWKKNGGSILFYTGNEGDIIWFCNNTGFMWDVAEELKAMLVFAEHRYYGESLPFGDNSFKDSRHLNFLTSEQALADFAELIKHLKRTIPGAENQPVIAIGGSYGGMLAAWFRMKYPHMVVGALAASAPIWQFEDLVPCGVFMKIVTTDFRKSGPHCSESIHRSWDAINRLSNTGSGLQWLTGALHLCSPLTSQDIQHLKDWISETWVNLAMVDYPYASNFLQPLPAWPIKVVCQYLKNPNVSDSLLLQNIFQALNVYYNYSGQVKCLNISETATSSLGTLGWSYQACTEVVMPFCTNGVDDMFEPHSWNLKELSDDCFQQWGVRPRPSWITTMYGGKNISSHTNIVFSNGELDPWSGGGVTKDITDTLVAVTISEGAHHLDLRTKNALDPMSVLLARSLEVRHMKNWIRDFYDS
modifications: N-linked glycans at Asn 101, 317, 336, 345 and 415 (Asn 47 not glycosylated); disulfide bridges 215-372, 233-310, 264-343, 364-394
notes: prolylcarboxypeptidase (PRCP), human
Q: Does B1 bind?
A: binds
